# In the supplement of paper PMC9233669:
# This sample holds only a part of the variants without activity.
# Tests used:
# biotinyl-Leu-oxazolone = assay: self-aminoacylation, catalytic enhancement (BLO) (fold over background); higher = more active; k-Seq, kA / k0A0; sequences stand for … in GGGAAUGGAUCCACAUCUACGAAUUC…UUCACUGCAGACUUGACGAAGCUG
# Method in brief: (§1)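 Working in 50 μL HEPES/NaCl/KCl/MgCl2/CaCl2 buffer with 5% acetonitrile at pH 6.9–7.0, mutagenized RNA pools (0.43 μM; 21-nt variable region) were reacted with 2–1250 μM of each biotinyl-aminoacyl-oxazolone for 90 minutes at room temperature. Streptavidin capture followed, with quantification by triplicate qPCR and Illumina sequencing. Catalytic enhancement is reported as median kA over the uncatalyzed rate, the low-activity peak of a bimodal Gaussian fit to the data.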
# biotinyl-Phe-oxazolone = assay: self-aminoacylation, catalytic enhancement (BFO) (fold over background); higher = more active; k-Seq, kA / k0A0; sequences stand for … in GGGAAUGGAUCCACAUCUACGAAUUC…UUCACUGCAGACUUGACGAAGCUG
# Method in brief: as §1
# biotinyl-Met-oxazolone = assay: self-aminoacylation, catalytic enhancement (BMO) (fold over background); higher = more active; k-Seq, kA / k0A0; sequences stand for … in GGGAAUGGAUCCACAUCUACGAAUUC…UUCACUGCAGACUUGACGAAGCUG
# Method in brief: as §1
# biotinyl-Val-oxazolone = assay: self-aminoacylation, catalytic enhancement (BVO) (fold over background); higher = more active; k-Seq, kA / k0A0; sequences stand for … in GGGAAUGGAUCCACAUCUACGAAUUC…UUCACUGCAGACUUGACGAAGCUG
# Method in brief: as §1
# biotinyl-Trp-oxazolone = assay: self-aminoacylation, catalytic enhancement (BWO) (fold over background); higher = more active; k-Seq, kA / k0A0; sequences stand for … in GGGAAUGGAUCCACAUCUACGAAUUC…UUCACUGCAGACUUGACGAAGCUG
# Method in brief: as §1
# biotinyl-Ile-oxazolone = assay: self-aminoacylation, catalytic enhancement (BIO) (fold over background); higher = more active; k-Seq, kA / k0A0; sequences stand for … in GGGAAUGGAUCCACAUCUACGAAUUC…UUCACUGCAGACUUGACGAAGCUG
# Method in brief: as §1
Sequence,self-aminoacylation (biotinyl-Leu-oxazolone),self-aminoacylation (biotinyl-Phe-oxazolone),self-aminoacylation (biotinyl-Met-oxazolone),self-aminoacylation (biotinyl-Val-oxazolone),self-aminoacylation (biotinyl-Trp-oxazolone),self-aminoacylation (biotinyl-Ile-oxazolone)
AAGUUUGGGAAUAGUCGCAAG [Fam3.1 aminoacylation ribozyme variant],1.05,1.95,0.876,1.25,1.69,1.32
AAGUUUGGUAAUACUCGCAAG [Fam3.1 aminoacylation ribozyme variant],0.673,1.07,0.998,1.04,0.719,1.06
AAGUUUGGUAAUAGGCGCAAG [Fam3.1 aminoacylation ribozyme variant],0.761,0.618,0.705,0.775,0.712,0.692
AAGUUUGGUAAUAGUCGCAAA [Fam3.1 aminoacylation ribozyme variant],1.44,1.72,1.66,1.44,1.75,1.88
AAGUUUGGUAAUAGUCGCAAC [Fam3.1 aminoacylation ribozyme variant],1.16,2.86,1.19,1.47,1.84,1.48
AAGUUUGGUAAUAGUCGCAGG [Fam3.1 aminoacylation ribozyme variant],1.7,2.19,1.39,1.4,2.18,1.47
AAGUUUGGUAAUAGUCGCCAG [Fam3.1 aminoacylation ribozyme variant],1.27,4.77,1.1,1.32,2.18,1.32
AAGUUUGGUAAUAGUCGGAAG [Fam3.1 aminoacylation ribozyme variant],0.717,1.11,0.771,0.815,1.08,0.893
AAGUUUGUCAAUAGUCGCAAG [Fam3.1 aminoacylation ribozyme variant],2.25,3.72,1.87,1.78,1.95,2.03
AAGUUUGUUAAUUGUCGCAAG [Fam3.1 aminoacylation ribozyme variant],0.933,0.994,0.992,0.926,0.92,1.09
AAGUUUGUUAGUAGUCGCAAG [Fam3.1 aminoacylation ribozyme variant],1.06,1.02,0.841,0.823,0.675,0.852
AAGUUUUCUAAUAGUAGCAAG [Fam3.1 aminoacylation ribozyme variant],1.33,2.5,1.29,1.34,1.8,1.5
AAGUUUUCUAAUAGUCGCAUG [Fam3.1 aminoacylation ribozyme variant],1.85,3.44,1.4,1.2,1.91,1.78
AAGUUUUCUAAUAGUCGGAAG [Fam3.1 aminoacylation ribozyme variant],1.14,1.99,1.25,1.31,1.21,1.44
AAGUUUUCUACUAGUCGCAAG [Fam3.1 aminoacylation ribozyme variant],1.79,3.09,1.67,1.51,1.86,1.99
AAGUUUUCUGAUAGUCGCAAG [Fam3.1 aminoacylation ribozyme variant],1.55,2.8,1.56,1.38,1.81,1.77
AAGUUUUGUAAUAGUCGCAAG [Fam3.1 aminoacylation ribozyme variant],1.5,2.1,1.53,1.55,1.84,1.64
AAUAACCUAGGUCAUCGGGUG [Fam2.2 aminoacylation ribozyme variant],4.57,22.8,4.25,3.3,5.23,3.18
AAUACACUGGUCAUCGAGUGA [Fam2.1 aminoacylation ribozyme variant],4.56,8.92,4.13,3.4,6.47,3.65
AAUACCCUGGACAUCGAGUGA [Fam2.1 aminoacylation ribozyme variant],4.14,10.5,3.95,2.25,5.44,2.25
AAUACCCUGGCCAUCGAGUGA [Fam2.1 aminoacylation ribozyme variant],2.71,2.33,2.08,1.64,3.4,1.85
AAUACCCUGGUAAUCGAGUGA [Fam2.1 aminoacylation ribozyme variant],8.53,38.5,7.38,3.37,10.3,3.96
AAUACCCUGGUCAACGAGUGA [Fam2.1 aminoacylation ribozyme variant],4.32,11.1,4.19,2.53,5.89,2.88
AAUACCCUGGUCAUCCAGUGA [Fam2.1 aminoacylation ribozyme variant],4.96,10.6,5.25,2.88,5.84,3.01
AAUACCCUGGUCAUCGAGGGA [Fam2.1 aminoacylation ribozyme variant],1.58,1.13,1.18,1.94,1.85,1.51
